The record followed here is PMC7955051.

Assay [1] has as its target RSV IN 1–278 (Rous sarcoma virus integrase, C-terminal truncation of 8 amino acids) (Rous sarcoma virus (Prague A)). Kind of assay: cryo-EM structure.
For assay [2] the target is unchanged. Kind of assay: SEC.
In assay [3] the target is RSV IN S262R (recombinant) (Rous sarcoma virus (Prague A)). Kind of assay: not stated; CSC assembly with recombinant IN mutants (Supplementary Fig. 11).

For orientation: stoichiometry N means the number of molecules, sites or subunits per partner or assembly.

Take “RSV IN 1–278 (Rous sarcoma virus integrase, C-terminal truncation of 8 amino acids) (domain or fragment)”: the stoichiometry N in assay [1] and in assay [2] was 8 in each case. As to RSV IN S262R (recombinant) (enzyme), the stoichiometry N in assay [3] came to 8.
